From US20110105394A1 (Novo Nordisk, published 2011)
*1 amine or outer side, *2 acyl side, *3 side chain or, on linkers, in order; H or OH if unused. Bridges are numbered along the chain shown (N, C = ends). Where no end group is shown, it is not given here. The star is where a group is joined. X2 = (S)‑4‑Carboxy‑4‑(19-carboxynonadecanoylamino)butyryl, O=C(O)CCCCCCCCCCCCCCCCCCC(=O)N[C@@H](CCC(=O)*)C(=O)O; X1 = (S)‑4‑Carboxy‑4‑(17-carboxyheptadecanoylamino)butyryl, O=C(O)CCCCCCCCCCCCCCCCC(=O)N[C@@H](CCC(=O)*)C(=O)O; C20 diacid = O=C(O)CCCCCCCCCCCCCCCCCCC(=O)*; γGlu = O=C(O)[C@H](CCC(=O)[*:2])N[*:1]; AEEA = NCCOCCOCC(=O)O

Molecular target: T1, Amylin 3(a) receptor (human calcitonin receptor (CTa) with RAMP-3) (human, UniProt P30988 25-474; O60896 24-148, limits assumed)
T1 sequence (looked up) 1: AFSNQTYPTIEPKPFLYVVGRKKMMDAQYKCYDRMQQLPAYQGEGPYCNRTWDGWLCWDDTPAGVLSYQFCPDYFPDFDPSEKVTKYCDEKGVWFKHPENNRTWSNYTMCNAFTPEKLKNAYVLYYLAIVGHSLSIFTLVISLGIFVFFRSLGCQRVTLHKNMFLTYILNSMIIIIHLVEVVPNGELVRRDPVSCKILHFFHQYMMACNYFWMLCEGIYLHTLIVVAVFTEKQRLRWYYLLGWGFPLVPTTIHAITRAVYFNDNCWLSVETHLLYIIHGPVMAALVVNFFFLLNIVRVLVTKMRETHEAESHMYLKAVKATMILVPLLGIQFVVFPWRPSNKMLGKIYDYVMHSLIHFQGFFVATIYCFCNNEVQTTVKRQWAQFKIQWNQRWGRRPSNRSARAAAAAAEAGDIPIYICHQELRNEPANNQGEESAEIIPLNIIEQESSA
T1 sequence (looked up) 2: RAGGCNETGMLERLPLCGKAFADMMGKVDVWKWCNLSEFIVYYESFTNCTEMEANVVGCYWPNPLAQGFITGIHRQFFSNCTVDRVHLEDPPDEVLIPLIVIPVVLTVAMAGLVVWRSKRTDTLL
Test: cell-based or functional assay

B1: N-alpha-[(S)-4-Carboxy-4-(19-carboxynonadecanoylamino)butyryl]-Arg-[Gly17]-pramlintide (peptide)
peptide: X2-RKCNTATCATQRLANFLGHSSNNFGPILPPTNVGSNTY-NH2
modifications: disulfide 3-8
SMILES: CC[C@H](C)[C@H](NC(=O)[C@@H]1CCCN1C(=O)CNC(=O)[C@H](Cc1ccccc1)NC(=O)[C@H](CC(N)=O)NC(=O)[C@H](CC(N)=O)NC(=O)[C@H](CO)NC(=O)[C@H](CO)NC(=O)[C@H](Cc1c[nH]cn1)NC(=O)CNC(=O)[C@H](CC(C)C)NC(=O)[C@H](Cc1ccccc1)NC(=O)[C@H](CC(N)=O)NC(=O)[C@H](C)NC(=O)[C@H](CC(C)C)NC(=O)[C@H](CCCNC(=N)N)NC(=O)[C@H](CCC(N)=O)NC(=O)[C@@H](NC(=O)[C@H](C)NC(=O)[C@@H]1CSSC[C@H](NC(=O)[C@H](CCCCN)NC(=O)[C@H](CCCNC(=N)N)NC(=O)CC[C@H](NC(=O)CCCCCCCCCCCCCCCCCCC(=O)O)C(=O)O)C(=O)N[C@@H](CC(N)=O)C(=O)N[C@@H]([C@@H](C)O)C(=O)N[C@@H](C)C(=O)N[C@@H]([C@@H](C)O)C(=O)N1)[C@@H](C)O)C(=O)N[C@@H](CC(C)C)C(=O)N1CCC[C@H]1C(=O)N1CCC[C@H]1C(=O)N[C@H](C(=O)N[C@@H](CC(N)=O)C(=O)N[C@H](C(=O)NCC(=O)N[C@@H](CO)C(=O)N[C@@H](CC(N)=O)C(=O)N[C@H](C(=O)N[C@@H](Cc1ccc(O)cc1)C(N)=O)[C@@H](C)O)C(C)C)[C@@H](C)O
Potency Luciferase: 0.1 nM

B2: N-alpha-[(S)-4-Carboxy-4-(19-carboxynonadecanoylamino)butyryl]-Arg-[His17]-pramlintide (peptide)
peptide: X2-RKCNTATCATQRLANFLHHSSNNFGPILPPTNVGSNTY-NH2
modifications: disulfide 3-8
SMILES: CC[C@H](C)[C@H](NC(=O)[C@@H]1CCCN1C(=O)CNC(=O)[C@H](Cc1ccccc1)NC(=O)[C@H](CC(N)=O)NC(=O)[C@H](CC(N)=O)NC(=O)[C@H](CO)NC(=O)[C@H](CO)NC(=O)[C@H](Cc1c[nH]cn1)NC(=O)[C@H](Cc1c[nH]cn1)NC(=O)[C@H](CC(C)C)NC(=O)[C@H](Cc1ccccc1)NC(=O)[C@H](CC(N)=O)NC(=O)[C@H](C)NC(=O)[C@H](CC(C)C)NC(=O)[C@H](CCCNC(=N)N)NC(=O)[C@H](CCC(N)=O)NC(=O)[C@@H](NC(=O)[C@H](C)NC(=O)[C@@H]1CSSC[C@H](NC(=O)[C@H](CCCCN)NC(=O)[C@H](CCCNC(=N)N)NC(=O)CC[C@H](NC(=O)CCCCCCCCCCCCCCCCCCC(=O)O)C(=O)O)C(=O)N[C@@H](CC(N)=O)C(=O)N[C@@H]([C@@H](C)O)C(=O)N[C@@H](C)C(=O)N[C@@H]([C@@H](C)O)C(=O)N1)[C@@H](C)O)C(=O)N[C@@H](CC(C)C)C(=O)N1CCC[C@H]1C(=O)N1CCC[C@H]1C(=O)N[C@H](C(=O)N[C@@H](CC(N)=O)C(=O)N[C@H](C(=O)NCC(=O)N[C@@H](CO)C(=O)N[C@@H](CC(N)=O)C(=O)N[C@H](C(=O)N[C@@H](Cc1ccc(O)cc1)C(N)=O)[C@@H](C)O)C(C)C)[C@@H](C)O
Potency Luciferase: 0.08 nM

X1-CNTATCATQRLANFLHHSSNNFGPILPPTNVGSNTY-NH2 (disulfide 1-6) [N-alpha-[(S)-4-Carboxy-4-(17-carboxyheptadecanoylamino)butyryl]-[His17]-pramlintide (2-37)]
Potency Luciferase: 0.08 nM

B3: N-alpha-[(S)-4-Carboxy-4-(19-carboxynonadecanoylamino)butyryl]-[Ser17]-pramlintide (2-37) (peptide)
peptide: {C20 diacid-γGlu}-CNTATCATQRLANFLSHSSNNFGPILPPTNVGSNTY-NH2
modifications: disulfide 1-6
SMILES: CC[C@H](C)[C@H](NC(=O)[C@@H]1CCCN1C(=O)CNC(=O)[C@H](Cc1ccccc1)NC(=O)[C@H](CC(N)=O)NC(=O)[C@H](CC(N)=O)NC(=O)[C@H](CO)NC(=O)[C@H](CO)NC(=O)[C@H](Cc1c[nH]cn1)NC(=O)[C@H](CO)NC(=O)[C@H](CC(C)C)NC(=O)[C@H](Cc1ccccc1)NC(=O)[C@H](CC(N)=O)NC(=O)[C@H](C)NC(=O)[C@H](CC(C)C)NC(=O)[C@H](CCCNC(=N)N)NC(=O)[C@H](CCC(N)=O)NC(=O)[C@@H](NC(=O)[C@H](C)NC(=O)[C@@H]1CSSC[C@H](NC(=O)CC[C@H](NC(=O)CCCCCCCCCCCCCCCCCCC(=O)O)C(=O)O)C(=O)N[C@@H](CC(N)=O)C(=O)N[C@@H]([C@@H](C)O)C(=O)N[C@@H](C)C(=O)N[C@@H]([C@@H](C)O)C(=O)N1)[C@@H](C)O)C(=O)N[C@@H](CC(C)C)C(=O)N1CCC[C@H]1C(=O)N1CCC[C@H]1C(=O)N[C@H](C(=O)N[C@@H](CC(N)=O)C(=O)N[C@H](C(=O)NCC(=O)N[C@@H](CO)C(=O)N[C@@H](CC(N)=O)C(=O)N[C@H](C(=O)N[C@@H](Cc1ccc(O)cc1)C(N)=O)[C@@H](C)O)C(C)C)[C@@H](C)O
Potency Luciferase: 0.1 nM

{C20 diacid-γGlu-AEEA}-CNTATCATQRLANFLHHSSNNFGPILPPTNVGSNTY-NH2 (disulfide 1-6)
Potency Luciferase: 0.1 nM

B4: N-alpha-[(S)-4-Carboxy-4-(19-carboxynonadecanoylamino)butyryl]-[Pro17]-pramlintide (2-37) (peptide)
peptide: {C20 diacid-γGlu}-CNTATCATQRLANFLPHSSNNFGPILPPTNVGSNTY-NH2
modifications: disulfide 1-6
SMILES: CC[C@H](C)[C@H](NC(=O)[C@@H]1CCCN1C(=O)CNC(=O)[C@H](Cc1ccccc1)NC(=O)[C@H](CC(N)=O)NC(=O)[C@H](CC(N)=O)NC(=O)[C@H](CO)NC(=O)[C@H](CO)NC(=O)[C@H](Cc1c[nH]cn1)NC(=O)[C@@H]1CCCN1C(=O)[C@H](CC(C)C)NC(=O)[C@H](Cc1ccccc1)NC(=O)[C@H](CC(N)=O)NC(=O)[C@H](C)NC(=O)[C@H](CC(C)C)NC(=O)[C@H](CCCNC(=N)N)NC(=O)[C@H](CCC(N)=O)NC(=O)[C@@H](NC(=O)[C@H](C)NC(=O)[C@@H]1CSSC[C@H](NC(=O)CC[C@H](NC(=O)CCCCCCCCCCCCCCCCCCC(=O)O)C(=O)O)C(=O)N[C@@H](CC(N)=O)C(=O)N[C@@H]([C@@H](C)O)C(=O)N[C@@H](C)C(=O)N[C@@H]([C@@H](C)O)C(=O)N1)[C@@H](C)O)C(=O)N[C@@H](CC(C)C)C(=O)N1CCC[C@H]1C(=O)N1CCC[C@H]1C(=O)N[C@H](C(=O)N[C@@H](CC(N)=O)C(=O)N[C@H](C(=O)NCC(=O)N[C@@H](CO)C(=O)N[C@@H](CC(N)=O)C(=O)N[C@H](C(=O)N[C@@H](Cc1ccc(O)cc1)C(N)=O)[C@@H](C)O)C(C)C)[C@@H](C)O
Potency Luciferase: 8 nM

B5: N-alpha-[(S)-4-Carboxy-4-(19-carboxynonadecanoylamino)butyryl]-[Arg17]-pramlintide (2-37) (peptide)
peptide: {C20 diacid-γGlu}-CNTATCATQRLANFLRHSSNNFGPILPPTNVGSNTY-NH2
modifications: disulfide 1-6
SMILES: CC[C@H](C)[C@H](NC(=O)[C@@H]1CCCN1C(=O)CNC(=O)[C@H](Cc1ccccc1)NC(=O)[C@H](CC(N)=O)NC(=O)[C@H](CC(N)=O)NC(=O)[C@H](CO)NC(=O)[C@H](CO)NC(=O)[C@H](Cc1c[nH]cn1)NC(=O)[C@H](CCCNC(=N)N)NC(=O)[C@H](CC(C)C)NC(=O)[C@H](Cc1ccccc1)NC(=O)[C@H](CC(N)=O)NC(=O)[C@H](C)NC(=O)[C@H](CC(C)C)NC(=O)[C@H](CCCNC(=N)N)NC(=O)[C@H](CCC(N)=O)NC(=O)[C@@H](NC(=O)[C@H](C)NC(=O)[C@@H]1CSSC[C@H](NC(=O)CC[C@H](NC(=O)CCCCCCCCCCCCCCCCCCC(=O)O)C(=O)O)C(=O)N[C@@H](CC(N)=O)C(=O)N[C@@H]([C@@H](C)O)C(=O)N[C@@H](C)C(=O)N[C@@H]([C@@H](C)O)C(=O)N1)[C@@H](C)O)C(=O)N[C@@H](CC(C)C)C(=O)N1CCC[C@H]1C(=O)N1CCC[C@H]1C(=O)N[C@H](C(=O)N[C@@H](CC(N)=O)C(=O)N[C@H](C(=O)NCC(=O)N[C@@H](CO)C(=O)N[C@@H](CC(N)=O)C(=O)N[C@H](C(=O)N[C@@H](Cc1ccc(O)cc1)C(N)=O)[C@@H](C)O)C(C)C)[C@@H](C)O
Potency Luciferase: 0.2 nM

B6: N-alpha-[(S)-4-Carboxy-4-(19-carboxynonadecanoylamino)butyryl]-[Ala17]-pramlintide (2-37) (peptide)
peptide: CNTATCATQRLANFLAHSSNNFGPILPPTNVGSNTY-NH2
modifications: disulfide 1-6; not fully specified (N-terminus); printed as N-alpha-[(S)-4-Carboxy-4-(19-carboxynonadecanoylamino)butyryl]-[Ala17]-pramlintide (2-37)
Potency Luciferase: 0.1 nM

B7: N-alpha-[(S)-4-Carboxy-4-(19-carboxynonadecanoylamino)butyryl]-[Gly17]-pramlintide (2-37) (peptide)
peptide: {C20 diacid-γGlu}-CNTATCATQRLANFLGHSSNNFGPILPPTNVGSNTY-NH2
modifications: disulfide 1-6
SMILES: CC[C@H](C)[C@H](NC(=O)[C@@H]1CCCN1C(=O)CNC(=O)[C@H](Cc1ccccc1)NC(=O)[C@H](CC(N)=O)NC(=O)[C@H](CC(N)=O)NC(=O)[C@H](CO)NC(=O)[C@H](CO)NC(=O)[C@H](Cc1c[nH]cn1)NC(=O)CNC(=O)[C@H](CC(C)C)NC(=O)[C@H](Cc1ccccc1)NC(=O)[C@H](CC(N)=O)NC(=O)[C@H](C)NC(=O)[C@H](CC(C)C)NC(=O)[C@H](CCCNC(=N)N)NC(=O)[C@H](CCC(N)=O)NC(=O)[C@@H](NC(=O)[C@H](C)NC(=O)[C@@H]1CSSC[C@H](NC(=O)CC[C@H](NC(=O)CCCCCCCCCCCCCCCCCCC(=O)O)C(=O)O)C(=O)N[C@@H](CC(N)=O)C(=O)N[C@@H]([C@@H](C)O)C(=O)N[C@@H](C)C(=O)N[C@@H]([C@@H](C)O)C(=O)N1)[C@@H](C)O)C(=O)N[C@@H](CC(C)C)C(=O)N1CCC[C@H]1C(=O)N1CCC[C@H]1C(=O)N[C@H](C(=O)N[C@@H](CC(N)=O)C(=O)N[C@H](C(=O)NCC(=O)N[C@@H](CO)C(=O)N[C@@H](CC(N)=O)C(=O)N[C@H](C(=O)N[C@@H](Cc1ccc(O)cc1)C(N)=O)[C@@H](C)O)C(C)C)[C@@H](C)O
Potency Luciferase: 0.4 nM
